Consider nine molecules from US20070014803A1 (ARBOR VITA, published 2007).

Assay [1] has as its target T1, HIV-1 Peptide 1904 (HIV-1).
T1 construct: also called HIV peptide 1904
Kind of assay: MATRIX screen of GST-PDZ array, modified G assay ELISA; 'Intensity of Hit'. Background: An ELISA detects its analyte on a solid surface through an enzyme-linked reagent.
Experimental: (§1) The primary MATRIX screen against all PDZ proteins in the library was performed under pre-incubation conditions, which are a modification of the G assay. A pre-incubation assay incubates the peptide with the HRP-streptavidin before addition of the mixture to the PDZ-coated plate. The subsequent titrations of the peptide against the PDZs of interest were performed under normal ELISA G assay conditions. In normal conditions the peptide is incubated on the PDZ coated plate before the later addition of the HRP-streptavidin.
(§2) Prepare peptides in half of volume need with double of desired concentration. […] Dilute HRP (1:1000) in another half of volume (same volume with peptide) then mix with peptides. […] Incubate the peptide-HRP mixtures for 20 minutes at RT 8. Wash plate 3× with cold PBS* 9. Add peptide-HRP mixtures at 50 μl per well (write time on plate) 10. […] Turn on plate reader and prepare files 12. Promptly wash plate 5× with room temperature PBS 13. Add 100 μl/well TMB substrate (write time on plate) 14. Incubate in dark at room temp for a maximum of 30 minutes 15. Stop reaction with 100 μl of 0.18M H₂SO₄, 30 min. after adding TMB 16. Take last reading at 450 nm soon after stopping reaction

For assay [2], the target named is T2, HIV-1 Peptide 1905 (HIV-1).
T2 construct: also called HIV peptide 1905
Described as above.
Experimental: as §1, §2

In assay [3] the target is T1, HIV-1 Peptide 1904. Kind of assay: G assay ELISA (FIG. 1C): GST-PDZ on anti-GST plate, biotinylated peptide titrated, streptavidin-HRP.
Assay [4] deals with T2, HIV-1 Peptide 1905. Description: modified G assay ELISA, third experiment (text prints 'FIG. 3C' a second time, read as FIG. 5C).
Assay [5] has as its target T2, HIV-1 Peptide 1905. Kind of assay: G assay ELISA (FIG. 4C): GST-PDZ on anti-GST plate, biotinylated peptide titrated, streptavidin-HRP.
Assay [6] addresses T1, HIV-1 Peptide 1904. Description: modified G assay ELISA (FIG. 2C): peptide pre-incubated with streptavidin-HRP, titrated on GST-PDZ plate.
Assay [7] has as its target T2, HIV-1 Peptide 1905. Kind of assay: modified G assay ELISA (FIG. 3C): peptide pre-incubated with streptavidin-HRP, titrated on GST-PDZ plate.

B1: INADL d3, GST fusion (other)
chain: NVELVRKDGQSLGIRIVGYVGTSHTGEASGIYVKSIIPGSAAYHNGHIQVNDKIVAVDGVNIQGFANHDVVEVLRNAGQVVHLTLVRRK
notes: also called INADL (PDZ #3)
Consider B1, for which the binding result with HIV-1 Peptide 1904 [1] was “binds”.

B2: PICK1 F.L., GST fusion (other)
chain: MFADLDYDIEEDKLGIPTVPGKVTLQKDAQNLIGISIGGGAQYCPCLYIVQVFDNTPAALDGTVAAGDEITGVNGRSIKGKTKVEVAKMIQEVKGEVTIHYNKLQADPKQGMSLDIVLKKVKHRLVENMSSGTADALGLSRAILCNDGLVKRLEELERTAELYKGMTEHTKNLLRAFYELSQTHRAFGDVFSVIGVREPQPAASEAFVKFADAHRSIEKFGIRLLKTIKPMLTDLNTYLNKAIPDTRLTIKKYLDVKFEYLSYCLKVKEMDDEEYSCIALGEPLYRVSTGNYEYRLILRCRQEARARFSQMRKDVLEKMELLDQKHVQDIVFQLQRLVSTMSKYYNDCYAVLRDADVFPIEVDLAHTTLAYGLNQEEFTDGEEEEEEEDTAAGEPSRDTRGAAGPLDKGGSWCDS
As for B2, the binding result with HIV-1 Peptide 1905 [2] was “binds”.

B3: EZRIN Binding Protein 50 PDZ #1, GST fusion (other)
chain: LCCLEKGPNGYGFHLHGEKGKLGQYIRLVEPGSPAEKAGLLAGDRLVEVNGENVEKETHQQVVSRIRAALNAVRLLVVDPE
notes: also called EBP50 d1; EBP50 (PDZ #1)
With B3, the binding result with HIV-1 Peptide 1905 [2] is given as “binds”.

B4: AIPC d1, GST fusion (other)
chain: LIRPSVISIIGLYKEKGKGLGFSIAGGRDCIRGQMGIFVKTIFPNGSAAEDGRLKEGDEILDVNGIPIKGLTFQEAIHTFKQIRSGLFVLTVRTKLVSPSLTNSS
notes: also called AIPC (PDZ #1)
Consider B4, for which, in the assay with HIV-1 Peptide 1904 [1], the binding result was “binds”.

B5: KIAA0751 RIM2, GST fusion (other)
chain: TLNEEHSHSDKHPVTWQPSKDGDRLIGRILLNKRLKDGSVPRDSGAMLGLKVVGGKMTESGRLCAFITKVKKGSLADTVGHLRPGDEVLEWNGRLLQGATFEEVYNIILESKPEPQVELVVSRPIG
Broadly, the EC50 is the concentration at which the effect is half-maximal. Low values mean a more potent agent, high ones a less potent agent. With B5, the half-maximal effective concentration (EC50) with HIV-1 Peptide 1904 [3] amounted to 410 nM; with HIV-1 Peptide 1905 [4] it was 68 nM; with HIV-1 Peptide 1905 [5], 182 nM; with HIV-1 Peptide 1904 [6] it was 30 nM; in the assay with HIV-1 Peptide 1905 [7] it was 14 nM.

B6: MAGI1 d1, GST fusion (other)
chain: PSELKGKFIHTKLRKSSRGFGFTVVGGDEPDEFLQIKSLVLDGPAALDGKMETGDVIVSVNDTCVLGHTHAQVVKIFQSIPIGASVDLELCRGYPLPFDPDGIHRD
notes: also called MAGI1 (PDZ #1)
In the case of B6, the binding result with HIV-1 Peptide 1904 [1] was “binds”.

B7: KIAA0316, GST fusion (other)
chain: IPPAPRKVEMRRDPVLGFGFVAGSEKPVVVRSVTPGGPSEGKLIPGDQIVMINDEPVSAAPRERVIDLVRSCKESILLTVIQPYPSPKSEFIVTD
On to B7, for which, in the assay with HIV-1 Peptide 1904 [1], the binding result was “binds”.

B8: KIAA1284, GST fusion (other)
chain: KDVNVYVNPKKLTVIKAKEQLKLLEVLVGIIHQTKWSWRRTGKQGDGERLVVHGLLPGGSAMKSGQVLIGDVLVAVNDVDVTTENIERVLSCIPGPMQVKLTFENAYDVKRET
B8: the binding result with HIV-1 Peptide 1905 [2] and in the assay with HIV-1 Peptide 1904 [1] was “binds” each time.

B9: KIAA0807 MAST2, GST fusion (other)
chain: ISALGSMRPPIIIHRAGKKYGFTLRAIRVYMGDSDVYTVHHMVWHVEDGGPASEAGLRQGDLITHVNGEPVHGLVHTEVVELILKSGNKVAISTTPLENSS
As to B9, the binding result with HIV-1 Peptide 1905 [2] and in the assay with HIV-1 Peptide 1904 [1] was “binds” each time.
